Source: US6521594 (dated 2003)
Where two headings read alike, the source gives them in different places. Starred links: 1 amine or outer side, 2 acyl side, 3 side chain; linkers in the order of their positions; H or OH if unused. Positions of bridges follow the written chain, without caps; N, C: chain ends. Non-standard residues stand in square brackets, D forms with d. Primed or numbered codes have the meaning given here. No end group written: not given here. *: point of attachment. Tyr(OMe)″ = O-methyl-tyrosine (Y-OMe, TyrOMe, O-Me-Tyr), COc1ccc(C[C@H](N[*:1])C(=O)[*:2])cc1; Tyr(Me) = O-methyl-tyrosine (Y-OMe, O-Me-Tyr), COc1ccc(C[C@H](N[*:1])C(=O)[*:2])cc1; Tyr(nBu) = O-n-butyl-tyrosine, CCCCOc1ccc(C[C@H](N[*:1])C(=O)[*:2])cc1; Cys(β,β-pentamethylene) = O=C([C@@H](N[*:1])C1(S[*:3])CCCCC1)[*:2]; Y‑OMe = O-methyl-tyrosine, COc1ccc(C[C@H](N[*:1])C(=O)[*:2])cc1; Cyclohexylacetyl(1-SH) = O=C(CC1(S)CCCCC1)*; Phe(4-I) = N[C@@H](Cc1ccc(I)cc1)C(=O)O; hPhe = N[C@@H](CCc1ccccc1)C(=O)O; dPen = CC(C)(S)[C@@H](N)C(=O)O; Pen = CC(C)(S)[C@H](N)C(=O)O; code O = not defined here; Tmc = not defined here

Tests used:
Test in all cases: ELISA
[1] = target: T1, Platelet glycoprotein IIb/IIIa (human, UniProt P08514 32-1039; P05106 27-788)
[2] = target: αvβ5
[3] = target: T1, Platelet glycoprotein IIb/IIIa; remark: listed apart in the source
[4] = target: αvβ5; remark: listed apart in the source
[5] = target: T2, Fibronectin receptor (human, UniProt P08648 42-1049; P05556 21-798)
T2 sequence (P08648 42-1049, chain 1 of 2): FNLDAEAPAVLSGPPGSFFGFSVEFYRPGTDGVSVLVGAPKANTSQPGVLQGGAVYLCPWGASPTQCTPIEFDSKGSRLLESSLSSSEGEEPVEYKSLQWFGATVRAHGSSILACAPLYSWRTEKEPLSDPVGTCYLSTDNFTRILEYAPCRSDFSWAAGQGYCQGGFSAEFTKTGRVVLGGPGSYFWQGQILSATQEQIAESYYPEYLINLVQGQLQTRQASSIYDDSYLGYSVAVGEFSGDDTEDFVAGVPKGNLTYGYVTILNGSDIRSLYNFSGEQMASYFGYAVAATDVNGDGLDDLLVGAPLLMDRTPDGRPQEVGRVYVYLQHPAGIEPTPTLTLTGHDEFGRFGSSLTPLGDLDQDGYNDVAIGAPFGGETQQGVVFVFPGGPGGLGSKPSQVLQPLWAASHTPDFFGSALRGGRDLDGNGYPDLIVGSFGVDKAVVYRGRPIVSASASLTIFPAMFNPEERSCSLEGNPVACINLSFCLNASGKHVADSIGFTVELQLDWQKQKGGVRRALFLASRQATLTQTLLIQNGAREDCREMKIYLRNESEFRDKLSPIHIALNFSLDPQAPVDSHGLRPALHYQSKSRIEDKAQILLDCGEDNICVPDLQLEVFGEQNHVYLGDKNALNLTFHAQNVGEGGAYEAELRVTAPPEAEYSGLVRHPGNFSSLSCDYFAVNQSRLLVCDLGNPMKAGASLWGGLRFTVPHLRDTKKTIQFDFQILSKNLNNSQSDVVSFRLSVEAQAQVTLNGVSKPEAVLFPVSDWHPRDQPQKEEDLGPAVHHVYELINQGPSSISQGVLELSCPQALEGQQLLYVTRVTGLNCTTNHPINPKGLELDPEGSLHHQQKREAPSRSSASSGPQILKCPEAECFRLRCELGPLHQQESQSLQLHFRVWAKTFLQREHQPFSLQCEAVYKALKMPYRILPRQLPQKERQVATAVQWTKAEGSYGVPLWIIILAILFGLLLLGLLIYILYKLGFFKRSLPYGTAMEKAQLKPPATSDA
T2 sequence (P05556 21-798, chain 2 of 2): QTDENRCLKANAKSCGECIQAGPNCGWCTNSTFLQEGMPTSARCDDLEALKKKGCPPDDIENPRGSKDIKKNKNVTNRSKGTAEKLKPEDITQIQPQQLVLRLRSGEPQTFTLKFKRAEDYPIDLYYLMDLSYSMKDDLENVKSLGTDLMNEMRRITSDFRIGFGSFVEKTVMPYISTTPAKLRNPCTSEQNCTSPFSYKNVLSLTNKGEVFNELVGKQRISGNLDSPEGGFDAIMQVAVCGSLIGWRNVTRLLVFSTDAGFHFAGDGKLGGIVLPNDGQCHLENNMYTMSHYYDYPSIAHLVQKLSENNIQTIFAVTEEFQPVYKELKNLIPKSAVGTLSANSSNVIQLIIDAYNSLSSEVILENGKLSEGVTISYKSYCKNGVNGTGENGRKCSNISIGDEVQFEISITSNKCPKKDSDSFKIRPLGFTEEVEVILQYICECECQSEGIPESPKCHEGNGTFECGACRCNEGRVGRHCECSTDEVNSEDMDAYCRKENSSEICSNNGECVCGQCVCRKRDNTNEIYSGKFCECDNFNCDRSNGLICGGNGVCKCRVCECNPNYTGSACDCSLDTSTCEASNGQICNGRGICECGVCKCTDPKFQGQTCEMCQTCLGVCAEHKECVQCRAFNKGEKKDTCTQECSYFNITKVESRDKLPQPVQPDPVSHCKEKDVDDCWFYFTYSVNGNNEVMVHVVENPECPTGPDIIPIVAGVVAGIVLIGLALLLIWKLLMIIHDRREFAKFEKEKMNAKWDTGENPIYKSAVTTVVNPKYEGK

[6] = target: αvβ5; remark: listed apart in the source
[7] = target: T2, Fibronectin receptor; remark: listed apart in the source
[8] = target: T2, Fibronectin receptor; remark: listed apart in the source
[9] = target: αvβ5; remark: listed apart in the source
[10] = target: αvβ5; remark: listed apart in the source
[11] = target: T1, Platelet glycoprotein IIb/IIIa; remark: listed apart in the source

Binder: [Cyclohexylacetyl(1-SH)]GHRGDLRCA (disulfide 1-9 (inferred)) [(Pmp)GHRGDLRCA]
- IC50 [1]: 20 nM

Binder: CNPRGDXXC (N-terminal acetyl; O-Me-Tyr at 7; Cit at 8; C-terminal amide) [Ac-CNPRGD(Y-OMe)(Cit)C-NH2]
- IC50 [2]: 3.46 µM

Binder: R[Cys(β,β-pentamethylene)]GHRGDFRCR (disulfide 2-10) [R(Pmc)GHRGDFRCR]
- IC50 [3]: 40 nM

Binder: R[Cys(β,β-pentamethylene)]GHRGD[hPhe]RCR (disulfide 2-10; also: Pmc2 from Boc-D/L-Pmc, configuration not given here) [R(Pmc)GHRGD(Hpa)RCR]
- IC50 [4]: 4250 nM

Binder: Ac-CNPRGD[Tyr(OMe)″]KC-NH2 (disulfide 1-9) [Ac-CNPRGD(Y-OMe)KC-NH2]
- IC50 [2]: 5.82 µM

Binder: Ac-CNPRGD[Tyr(OMe)″]EC-NH2 (disulfide 1-9) [Ac-CNPRGD(Y-OMe)EC-NH2]
- IC50 [2]: 9.47 µM

Binder: R[Cys(β,β-pentamethylene)]GHRGD[Tyr(nBu)]RCR (disulfide 2-10; also: Pmc from Boc-D/L-Pmc, isomer not given here) [R(Pmc)GHRGD(O-n-butyl-Tyr)RCR]
- IC50 [3]: 30 nM

Binder: R[Cys(β,β-pentamethylene)]GHRGD[Phe(4-I)]RCR (disulfide 2-10; also: Pmc2 from Boc-D/L-Pmc) [R(Pmc)GHRGD(p-I-F)RCR]
- IC50 [5]: 4190 nM
- IC50 [3]: 10 nM
- IC50 [4]: 4030 nM

Binder: R[dPen]GHRGDLRCR (disulfide 2-10) [R(D-Pen)GHRGDLRCR]
- IC50 [6]: 10 µM

B1: R(Tmc)GHRGDLRCR (peptide)
peptide: R[Tmc]GHRGDLRCR
modifications: disulfide (positions not given here); reading uncertain; also: Tmc2 as D,L mixture of diastereomers, printed as R(Tmc)GHRGDLRCR
- IC50 [1]: 30 nM

Binder: G[Pen]GHRGDLRCA (disulfide 2-10) [G(Pen)GHRGDLRCA]
- IC50 [6]: 8.26 µM

Binder: R[Cys(β,β-pentamethylene)]GHRGDLRCR (disulfide 2-10 (inferred); also: D,L-Pmc mixture at 2) [R(Pmc)GHRGDLRCR]
- IC50 [6]: 1.58 µM
- IC50 [4]: 1580 nM

Binder: R[Cys(β,β-pentamethylene)]GHRGD[Tyr(Me)]RCR (disulfide 2-10; also: Pmc2 made from D,L-Pmc, configuration not given here) [R(Pmc)GHRGD(O-Me-Tyr)RCR]
- IC50 [5]: 980 nM
- IC50 [7]: 980 nM
- IC50 [8]: 980 nM

Binder: R[Pen]GHRGDLRCR (disulfide 2-10) [R(Pen)GHRGDLRCR]
- IC50 [6]: 4.93 µM
- IC50 [1]: 40 nM

Binder: R[Cys(β,β-pentamethylene)]GHRGD[Tyr(Me)]RCR (disulfide 2-10; also: Pmc2 made from D,L-Pmc, configuration not given here) [R(Pmc)GHRGD(Y-OMe)RCR]
- IC50 [4]: 1050 nM
- IC50 [9]: 1050 nM
- IC50 [10]: 1050 nM

Binder: G[dPen]GHRGDLRCA (disulfide 2-10) [G(D-Pen)GHRGDLRCA]
- IC50 [6]: 5.27 µM

Binder: Ac-CNPRGD[Y‑OMe][code O]C-NH2 (disulfide 1-9 (inferred); reading uncertain) [Ac-CNPRGD(Y-OMe)OC-NH2]
- IC50 [11]: 50 nM
- IC50 [2]: 7.7 µM
